The values that follow come from publication PMC11856044.

As usually defined, the stoichiometry N is the number of molecules, sites or subunits per partner or assembly.

In the test the target is Bombyx mori ribosomal protein RPL12 (Bombyx mori (endogenous in BmN)). In words: Western blot of total cell proteins; total proteins of BmN cells (mock, control siRNA, BmRPL12 siRNA), anti-RPL12 polyclonal antibody; monomer and dimer bands.

“Bombyx mori ribosomal protein RPL12 (natural protein)”: the stoichiometry N came to 2.
